No end group written: not given here. *: point of attachment. Biotin = O=C1N[C@H]2[C@H](CS[C@H]2CCCCC(=O)*)N1
Columns and labels:
[1] = target: T1, Biotin PSGL-1(56-70) peptide (human); test: ELISA, plate-bound biotin peptide
T1 peptide: Ac-ETEPPEMLRNSTDTTGK(Biotin)

[2] = target: T2, Biotin PSGL-1(290-310) peptide (human, N-terminal acetyl; C-terminal Lys-biotin); test: ELISA, streptavidin-immobilized biotin peptide [cont.]
T2 peptide: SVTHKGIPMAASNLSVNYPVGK
Experimental: (§1) A typical ELISA experiment involved binding of a single concentration or serially diluted mAb in assay buffer (3% BSA in PBS containing 0.05% Tween®20, pH 7.4) onto BSA blocked high binding microtiter plate half-wells (Corning Cat. #3690), which contained PSGL-1 protein or streptavidin-immobilized biotin peptide. After incubation for 45 min. at 37° C., the plate was washed 3 times with wash buffer (PBS containing 0.05% Tween®20, pH 7.4), and an appropriate HRP-conjugated secondary antibody added (25 ul/well) (HRP goat anti-mouse or anti-human IgG). After 45 min. incubation at 37° C., the plate was washed and antibody bound to plate-immobilized target was determined at A450 nm using HRP substrate (3,3′5,5′-tetramethylbenzidine (TMB)). For each antibody, duplicate values were averaged and assay background subtracted.

[3] = target: T3, Biotin PSGL-1(105-125) peptide (human, N-terminal acetyl; C-terminal Lys-biotin); test: as above
T3 peptide: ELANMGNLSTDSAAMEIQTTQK
Experimental: as §1

[4] = target: T4, Biotin PSGL-1(42-62) F53A peptide (C-terminal Lys-biotin); test: ELISA; against wild-type PSGL-1 42-62
T4 peptide: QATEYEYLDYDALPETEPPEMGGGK

[5] = target: T5, M62A (C-terminal Lys-biotin); test: alanine-scan ELISA, streptavidin-immobilized biotin peptide
T5 construct: alanine-scan peptide; also called Biotin PSGL-1(42-62) M62A peptide; 62M
T5 peptide: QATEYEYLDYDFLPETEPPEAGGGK

[6] = target: T4, Biotin PSGL-1(42-62) F53A peptide; test: ELISA, streptavidin-bound Ala peptide
[7] = target: T6, Biotin PSGL-1(42-62) L49A peptide (C-terminal Lys-biotin); test: ELISA; against wild-type PSGL-1 42-62
T6 peptide: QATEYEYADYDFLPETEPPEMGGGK

[8] = target: T7, Biotin PSGL-1(42-62) Y51A peptide (C-terminal Lys-biotin); test: ELISA; against wild-type PSGL-1 42-62
T7 peptide: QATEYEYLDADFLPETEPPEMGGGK

[9] = target: T6, Biotin PSGL-1(42-62) L49A peptide; test: ELISA, streptavidin-bound Ala peptide
[10] = target: T7, Biotin PSGL-1(42-62) Y51A peptide; test: ELISA, streptavidin-bound Ala peptide
[11] = target: T8, Biotin PSGL-1(42-62) peptide, unmodified (human, C-terminal Lys-biotin); test: ELISA, plate-bound peptide
T8 construct: Residues 42-62 followed by GGGK-biotin; also called WT; wild-type
T8 peptide: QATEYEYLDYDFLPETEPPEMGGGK

[12] = target: T8, Biotin PSGL-1(42-62) peptide, unmodified; test: ELISA, plate-bound mAb captures biotin peptide
Experimental: Two ELISA methods were performed. One procedure detected mAb binding to its plate-immobilized target and the other measured the immobilized antibody's ability to capture biotinylated PSGL-1₄₂₋₆₂. […] The plate was incubated for 45 min at 37° C. Plates were washed 3 times with wash buffer (PBS containing 0.05% tween 20, pH 7.4) and a single concentration (2 to 500 nM) or serially diluted (0.002-100 nM) anti-PSGL-1 mAb was added (25 ul/well) in assay buffer into appropriate wells. The plate was incubated for 45 min at 37° C., washed 3 times, and an appropriate HRP-conjugated secondary antibody added (25 ul/well) (HRP goat anti-mouse or anti-human IgG). After 45 min incubation at 37° C., the plate was washed, and antibody bound to plate-immobilized target was determined at A450 nm using HRP substrate (3,3′,5,5′-etramethylbenzidine (TMB)). For each antibody, duplicate values were averaged and assay background was subtracted. Except for the following, ELISAs involving plate-immobilized mAb capturing of biotinylated PSGL-1₄₂₋₆₂ peptides was performed in the same manner as described above: 3 ug/mL/25 ul per well of mAb was coated directly onto microtiter plate wells; biotinylated unmodified or sulfotyrosine PSGL-1₄₂₋₆₂ was serially diluted (3 nM-3 uM) into appropriate wells, and antibody-bound peptide was detected using HRP-streptavidin (Jackson Immunoresearch, Cat. #016-030-084).

[13] = target: T9, Biotin PSGL-1(42-62) L54A peptide (C-terminal Lys-biotin); test: ELISA, streptavidin-bound Ala peptide
T9 peptide: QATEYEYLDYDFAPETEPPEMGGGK

[14] = target: T10, PSGL-1 endogenously expressed on HL-60 cells (UniProt Q14242 42-412); test: flow cytometry on HL-60 cells
T10 construct: whole, on cells
T10 sequence (looked up): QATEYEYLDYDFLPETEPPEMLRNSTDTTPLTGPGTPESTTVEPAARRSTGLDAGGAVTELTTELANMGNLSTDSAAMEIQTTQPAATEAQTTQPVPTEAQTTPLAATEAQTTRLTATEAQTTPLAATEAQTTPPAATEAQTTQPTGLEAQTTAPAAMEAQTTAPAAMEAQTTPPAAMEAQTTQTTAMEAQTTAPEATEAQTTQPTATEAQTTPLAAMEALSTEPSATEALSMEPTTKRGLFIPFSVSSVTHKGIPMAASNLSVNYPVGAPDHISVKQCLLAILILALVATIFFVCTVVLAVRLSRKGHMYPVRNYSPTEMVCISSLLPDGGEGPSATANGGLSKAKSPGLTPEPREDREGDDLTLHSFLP
Experimental: A typical flow cytometry assay was performed by resuspending HL-60 cells in FACS buffer (5% FBS and 0.05% Sodium Azide in PBS, pH 7.2) on ice, pelleting cells by centrifugation at 500×g for 3 min, washing cells with FACS buffer, and then blocking Fc receptors on the cells with Fc block (human TruStain FcX™, BioLegend Cat. #422302) on ice for 10 min. After washing, 50,000 cells/50 ul in FACS buffer was added to each well of a 96-well round bottomed plate (Costar, Cat. #3797), and 50 ul of serially diluted (0.06 nM-1.0 uM) test or isotype control antibody was added into duplicate wells. The plate was covered and incubated on ice for 1 h. After washing, Phycoerythrin (PE) conjugated anti-human IgG secondary antibody (Abcam; Cat. #ab99825) was added to each well and the plate incubated in the dark on ice for 30 min. After washing, the cells were fixed (1% paraformaldhyde).

B1: 5E12 (antibody, V domains shown)
VH: EIQLQQSGAELVRPGASVKLSCTASGFNIKDDYIHWVKQRPEQGLEWIGRIDPANGNTKSAPKFQDKATITADTSSNTAYLHLSSLTSEDTAVYYCSIRFAYWGQGTLVTVSA
VL: DVVMTQTPLSLSVSLGDQASISCRSSQSLVYRNGDTYLHWFLQKPGQSPKLLIYKVSNRFSGVPDRFSGSGSGTDFTLKISRVEAEDLGIYFCSQNTHVPYTFGGGTKLEIK
notes: Mouse hybridoma mAb; only variable domains given
Does B1 bind [1]?
Result: binds

B2: 18F02 (antibody, V domains shown)
VH: QVQLQQPGAELVKPGASVKLSCKASGYTFTSYWMHWVKQRPGQGLEWIGMIHPNSGRTNYNEKFKSKATLTVDKSSSTAYMQLSSLTSEDSAVYYCARSDYWGQGTTLTVSS
VL: DIVMTQAAFSNPVTLGTSASISCRSSKSLLHSDGITYLYWFLQRPGQSPQLLIYRMSNLASGVPDRFSGSGSGTDFTLRISRVEAEDVGVYYCAQMLEFPRTFGGGTKLEIK
notes: From mouse immunisation; only variable domains given
Which results are given for B2?
binding result [2]: no binding (tested: 10 nM); binding result [3]: no binding (tested: 10 nM); EC50Ala/EC50 wt [4]: 59.2 fold; binding result [5]: binds; EC50 [6]: 7.1 nM

B3: 16L15 (antibody, V domains shown)
VH: DVKLVESGGGLVKLGGSLKLSCAASGFTFSSYYMSWVRQTPEKRLEWVATISNGGGSTYYPDSVKDRFTISRDNAKNTLYLQMSSLNSEDTAVYYCAKPLYYSNPWFAYWGQGTLVTVSA
VL: DVLLTQTPLSLPVSLGDQASISCRSSQSIVHSNGNTYLEWYLQKPGQSPKLLIYKVSNRFSGVPDRFSGSGSGTDFTLKISRVEAEDLGVYYCFQGSHVPRTFGGGTKLEIK
notes: as for B2
For B3, which EC50Ala/EC50 wt [7] is on record?
The EC50Ala/EC50 wt was 3.6 fold.

What about the EC50Ala/EC50 wt [8] of the same binder?
The EC50Ala/EC50 wt was 9.3 fold.

What about the EC50 [9] of the same binder?
The EC50 was 3.43 nM.

What about the EC50 [10] of the same binder?
Its EC50 is 8.83 nM.

B4: 19I01 (antibody, V domains shown)
VH: EVQLVESGGGLVKPGGSRKLSCAASGFTFSDYGMHWVRQAPEKGLEWVAYISSGSSTIYYADTVKGRFTISRDNAKNTLFLQMTSLRSEDTAMYYCARGVDGYWGQGTTLTVSS
VL: DVVMTQTPLSLPVSLGDQASISCRSSQSLVHSNGNTYLHWYLQKPGQSPKFLIYKVSNRFSGVPDRFSGSGSGTDFTLKISRVEAEDLGVYFCSQTTHVPLTFGAGTKLELK
notes: From mouse immunisation; only variable domains given; also called 19101
Which EC50Ala/EC50 wt [4] does the source give for B4 here?
Its EC50Ala/EC50 wt is 24.6 fold.

What about the EC50 [6] of the same binder?
The EC50 was 2.95 nM.

B5: 2E12 (antibody, V domains shown)
VH: QVQLQQSGAELARPGASVKLSCKASGYTFTNYGLNWVKQRTGQGLEWIGEIYPRSGNTYYNEKFKGKATLTADKSSSTAYMQLSSLTSEDSAVYFCATEGAYWGQGTLVTVSA
VL: DIVMTQTPLTLSVTIGQPASISCKSSQSLLHGNGKTYLNWLLQRPGQSPKLLIYLVSKLESGIPDRFSGSGSGTDFTLEISRVEAEDLGIYYCLQSTHFPRTFGGGTKLEIK
notes: as for B1
Does B5 bind [1]?
Result: binds

B6: 10F01 (antibody, IgG4, V domains shown)
VH: EVQLVQSGGGLVQPGGSLRLSCAASGFTFSSYAMSWVRQAPGKGLEWVSALRGGDGGTYHADSVKGRFTISGDSSKNTLYLQMNSLRAEDTAVYYCARRMVGAAYAFDIWGQGTMVTVSS
VL: LPVLTQPHSVSESPGKTVTISCTRSSGSIADNFVQWYRQRPGSAPTTVIYEGDQRPSGVPGRFSGSIDSSSNSASLTISGLQTDDEADYYCQSFDSYNRRTHVVFGGGTKLTVL
How did the “fold weaker binding than to sulfotyrosine PSGL-1 42-62” value [11] turn out when B6 was run?
The value was > 500 fold.

B7: 03D07 (antibody, IgG4, V domains shown)
VH: EVKLLESGGGLVQPGGSLRLSCAASGFTFSSYALSWVRQAPGKGLEWVSAISGSGGNTYYADSVKGRFTISRDNSKNTLYLQMNSLRAEDTAVYYCAKVVGATNYWGQGTLVTVSS
VL: DIVMTQTPLSLPVTLGQPASISCRSSQSLVYSDGHTYLSWFHQRPGQSPRRLIYKVSIRDSGVPDRFSGSGSGTDFTLKISRVEAEDVGVYYCMQRLQIPLTFGGGTKVEIK
How did the EC50 [12] turn out when B7 was run?
The EC50 was > 3000 nM.

B8: 43B6 (antibody, V domains shown)
VH: EVQLQQSGPDLVKPGALVKISCKASGYSFTAYYIHWVKQSHGKSLEWIGRVNPNTGGTSYNPKFKGKAILNVDKSSSTAYMELRSLTSEDSAVYYCARSGSPYYRYDDWGQGTTLTVSS
VL: ENVLTQSPAIMSASPGEKVTMTCRASSTVNSTYLHWFQQKSGASPKLWIYGSSNLASGVPARFSGSGSGTSYSLTISSVEAEDAATYYCQQYSGYPLTFGAGTTLELK
notes: Control anti-PSGL-1 mAb, recombinant; only variable domains given; also called 43B3
B8 was tested. Which EC50Ala/EC50 wt [7] did it give?
The EC50Ala/EC50 wt was 12.2 fold.

Does B8 bind [5]?
Result: binds

And the EC50 [9]?
The EC50 was 2.63 nM.

Does B8 bind [13]?
Result: no binding

B9: 9F9 (antibody, V domains shown)
VH: EVQLVETGGGLVQPKGSLKLSCAASGFTFNTNAMNWVRQAPGKGLEWVARIRSKSNNYATYYADSVKDRFTISRDDTQSMIYLQMNNLKTEDTGMYYCVRGGSYWYFDVWGAGTTVTVSS
VL: DVLMTQTPLSLPVSLGDQASISCRSSQSIVNSNGNTYLEWYLQKPGQSPKLLIYKVSNRFSGVPDRFSGSGSGTDFTLKISRVEAEDLGVYYCFQGSHVPWTFGGGTKLEIK
notes: Control anti-PSGL-1 mAb, recombinant; only variable domains given; also called 9F6
B9 was tested. Which EC50Ala/EC50 wt [8] did it give?
The EC50Ala/EC50 wt was 10.8 fold.

And the EC50 [13]?
The EC50 was 2.31 nM.

What about the EC50 [10] of the same binder?
The EC50 was 1.72 nM.

B10: 18K07 (antibody, V domains shown)
VH: QIQLVQSGPELKKPGETVKISCEASGYTFTTYGMNWVKQAPGKGLKWMGWINTYSGVPTYADDFQGRFAFSVETSATTAYLQINNLKNEDAATYFCARSDDTYYGFAYWGQGTLVTVSA
VL: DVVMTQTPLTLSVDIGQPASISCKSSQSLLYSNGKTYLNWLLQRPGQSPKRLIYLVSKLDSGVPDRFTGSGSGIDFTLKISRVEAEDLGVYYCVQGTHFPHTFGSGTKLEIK
notes: as for B2
Does B10 bind [2]?
Result: no binding (tested: 10 nM)

Does B10 bind [3]?
Result: no binding (tested: 10 nM)

B11: 19L04 (antibody, IgG4, V domains shown)
VH: QIQLVQSGPELKKPGETVKISCKASGYTFTTYGMSWVKQAPGKGLKWMGWINTYSGVPTYADDFKGRFAFSLETSASTAYLQINNLKIEDTATYFCARHYYGSHYFDYWGQGTTLTVSS
VL: DIMMTQSPSSLAMSVGQKVTLRCKSSQSLLNSSNQKNYLAWYQQKPGQSPKLLVYFASTRESGVPVRFIGSGSGTDFTLTISSMQAEDLADYFCQQHYFSPLTFGAGTKLELK
notes: as for B2
Which EC50 [14] does the source give for B11 here?
The EC50 was 2 nM.

— US20220396632A1 (VERSEAU THERAPEUTICS, published 2022)
